Patent publication US20150071855A1 (LONDON HEALTH SCIENCES CENTRE RESEARCHING, published 2015)

Target: T1, recombinant GST-EGFL7 protein (UniProt Q9UHF1 24-273)
T1 construct: Expressed in Sf21 insect cells by baculovirus and purified on glutathione-agarose; The sense primer encodes MRGSQEV, which fits human EGFL7; also called purified EGFL7 protein; recombinant EGFL7; not shown: glutathione-S-transferase (GST) tag from the pDEST20 plasmid (Invitrogen); TEV site/linker region carried over from pENTR/TEV/D-TOPO
T1 sequence (looked up): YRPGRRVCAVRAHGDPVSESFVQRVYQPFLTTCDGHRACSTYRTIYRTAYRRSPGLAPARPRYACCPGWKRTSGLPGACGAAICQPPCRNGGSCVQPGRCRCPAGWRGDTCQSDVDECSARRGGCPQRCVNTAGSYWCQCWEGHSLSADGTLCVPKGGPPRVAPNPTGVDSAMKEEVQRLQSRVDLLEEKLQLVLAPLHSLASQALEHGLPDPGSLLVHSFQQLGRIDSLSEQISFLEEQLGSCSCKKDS
Test: SPR imaging (GWC); peptide immobilised on gold spots, purified EGFL7 protein in solution; fit with 'association then dissociation' in GraphPad Prism
Protocol: Peptides were immobilized onto gold spots using standard protocols from the GWC manual. Peptides were then exposed to 500 μL of purified EGFL7 protein. The % change in reflectivity (% R) for each of the spots containing the peptides was collected using V++ Precision Digital Imaging Systems, version 5.0 software and the dissociation constants (KD) were calculated using the ‘association then dissociation’ equation in GraphPad Prism, version 5.0.

- Kd: 14.7 nM
B1: GSLLVHSFQQLG (peptide)
peptide: GSLLVHSFQQLG
notes: Immobilised on gold spots for the SPR imaging study; also called LCE71; LCE77
